From US20120219547A1 (LIVZON MABPHARM, published 2012)
Substitutions are numbered along the chain they refer to.

Legend:
[1] = biological target: T1, recombinant human tumor necrosis factor-α (human, UniProt P01375 77-233); experiment: cell-based or functional assay
[2] = biological target: T1, recombinant human tumor necrosis …; experiment: competition ELISA, rhTNF coated on plate, competitor HRP-labeled humira; given in µg/mL
Description: The anti-hTNFα human antibody humira marked with horseradish peroxidase (HRP) was used as a reagent. Elisa plates were coated with rhTNF (50 μl of […]), and left overnight at room temperature. The coating solution was discarded, and each well was blocked with 1% skim milk in phosphate buffered saline (PBS) for about 0.5 hours, and washed with PBS containing 0.05% Tween 20. And then a mixture of 50 μl of growth medium and 50 μl of HRP labeled humira was added to each well. Unlabeled humira and antibody-free medium were used as positive and negative controls. […] The wells in which the binding of HRP-labeled humira and rhTNFα was inhibited Kong were amplified and subcloned, followed by analysis of several mouse monoclonal antibodies which show the inhibition effects, and finally hybridoma cells were screened out. The hybridoma cells were intermediate cultured, and the supernatant was taken for purification, and the mouse monoclonal antibody TM2-11-12 and TM2-6-3. The purified mouse monoclonal antibodies TM2-11-12 and TM2-6-3 were tested in competition binding assays. Even at the concentration up to 1 μg/mL, the mouse antibody TM2-6-3 only competed out about 50% of the binding of humira to hTNFα.

mouse TNFα [3] = biological target: T2, mouse TNFα (mouse, UniProt P06804 80-235); experiment: ELISA, TNFα coated on plate (mouse 25 ng/well, human 5 ng/well), HRP-labeled anti-human Fc detection; calculated from coating and sample concentrations
T2 sequence (looked up): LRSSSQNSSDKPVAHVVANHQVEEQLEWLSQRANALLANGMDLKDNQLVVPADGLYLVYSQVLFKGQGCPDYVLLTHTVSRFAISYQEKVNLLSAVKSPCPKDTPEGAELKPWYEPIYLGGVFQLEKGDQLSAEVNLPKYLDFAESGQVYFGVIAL
Description: (§1) On a plate, respectively coat recombinant human TNFα 5 ng/well, mouse TNFα 25 ng/well, and monkey TNFα 5 ng/well at room temperature, and blocked for 1 h, washed. And then 1.8-fold gradient dilutions of AT132 was added with an initial concentration of 250 ng/mL, and incubated at 25° C. for 2 h, washed, HRP-labeled anti-human Fc antibody added, and incubated at room temperature for 1 h, washed, and the substrate solution added as 100 μl/well, placed in dark at 37° C. for 30 min. In accordance with the order of the added color reagents, 0.2 M H₂SO₄, 50 μl/well was added to terminate the reaction. Within about 5 minutes after termination, OD values were test at 450 nm/630 nm on a microplate reader, and median effective concentrations were obtained by four-parameter fitting. Compare the binding activities of AT132 to different sources of TNFα.

monkey TNFα = monkey TNFα (monkey); experiment: ELISA, TNFα coated on plate (5 ng/well), HRP-labeled anti-human Fc detection, four-parameter fit
Description: as §1

mouse TNFα [4] = biological target: T2, mouse TNFα; experiment: ELISA, TNFα coated on plate, HRP-labeled anti-human Fc detection
Description: as §1

[5] = biological target: T1, recombinant human tumor necrosis …; experiment: SPR, Biacore X100; antibody captured by goat anti-human IgG Fc on CM5 chip, TNFα as analyte
Description: AT132 affinity was determined by Biacore X100, and analyzed with Biacore X100 kinetics/affinity analysis software. Using indirect capture method, goat anti-human IgG Fc polyclonal antibody was coupled to the surface of CM5 chip as a capture molecule by using Amine Coupling Kit. By calculation, AT132 and Humira as control were respectively diluted to a a certain concentration to be lately used as ligand, and TNFα as the analyte. Analytes were diluted to 5 concentrations, and each concentration as a cycle. First, using HBS-EP buffer to run for three cycles, designing an analyte concentration of 0 concentration to run for two cycles, and finally, designing a repeat analyte concentration to run for a cycle. The whole process ran 11 cycles, and each cycle can draw a curve. The dynamics/affinity data of the measured antibody and humira were analyzed by Biacore X100 kinetics/affinity analysis software.

T1 sequence (P01375 77-233 limits assumed): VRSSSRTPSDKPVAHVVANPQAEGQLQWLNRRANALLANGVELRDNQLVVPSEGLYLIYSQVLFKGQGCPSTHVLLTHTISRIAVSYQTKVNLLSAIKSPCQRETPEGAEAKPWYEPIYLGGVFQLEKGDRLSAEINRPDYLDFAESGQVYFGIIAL

B1: AT135 humanized anti-TNFα antibody (antibody, human IgG1, V domains shown)
VH: QVQLVQSGPELKKPGASVKISCKASGYTFTHYGMHWVKQTPGRGLKWVGWINTYTGEPTYDADFQGRFTFSLDTSVSTAFLQINSLKDEDLAVYFCARYDFDGFDYWGQGTTLTVSS
VL: ENVLTQSPPILSASPGERVTMTCRASSSITFNYLHWYQQKSGDSPKVWIYSTSNLVSGVPSRFSGSGSGTSYSLTISSLEAEDAATYYCQQYSDYPYTFGGGTKLEIK
EC50(ng/mL), neutralization of TNFα killing effect on L929 cell [1]: 50 ng/mL

B2: AT164 humanized anti-TNFα antibody (antibody, human IgG1, V domains shown)
VH: B1 VH
VL: B1 VL with L11M, W48L, L79V
EC50(ng/mL), neutralization of TNFα killing effect on L929 cell [1]: 45.5 ng/mL

B3: AT151 humanized anti-TNFα antibody (antibody, human IgG1, V domains shown)
VH: B1 VH with D73E, V93T
VL: B1 VL with R18E, S61A, A84F
EC50(ng/mL), neutralization of TNFα killing effect on L929 cell [1]: 42.1 ng/mL

B4: AT143 humanized anti-TNFα antibody (antibody, human IgG1, V domains shown)
VH: B1 VH with A16E, D73E, V76T, F80Y, V93T
VL: B1 VL with L11M, W48L, L79V
EC50(ng/mL), neutralization of TNFα killing effect on L929 cell [1]: 39.8 ng/mL

B5: mouse monoclonal antibody TM2-11-12 (antibody, mouse IgG1, V domains shown)
VH: B1 VH with A16E, S17T, G44S, D73E, V76T, S85T, V93T
VL: B1 VL with L11M, R18E, S61A, L79V
notes: Purified from hybridoma supernatant; The cloning primers are antisense to the mouse IgG1 heavy chain and mouse kappa light chain constant regions; also called anti-hTNFα mouse antibody TM2-11-12
IC50 [2]: ~0.05 µg/mL

B6: AT132 humanized anti-TNFα monoclonal antibody (antibody, human IgG1, V domains shown)
VH: B1 VH with D73E, V93T
VL: B1 VL
notes: also called E001VH/F001VL
fold lower binding activity than to human TNFα (mouse TNFα [3]): 1000 times lower
binding activity relative to human TNFα (monkey TNFα): ~50%
EC50(ng/mL), neutralization of TNFα killing effect on L929 cell [1]: 20.4 ng/mL
binding result (mouse TNFα [4]): no binding
Ka [5]: 8.4e+10 M⁻¹
Kd [5]: 0.0119 nM
